Laboratory results from PMC3059353.

Substrate: Nc1ncnc2nc[nH]c12
Experiment: steady-state kinetics of purified enzyme, GDH-coupled ammonia assay
Type: biochemical, Agrobacterium fabrum
Details: binuclear Mn2+ active site at binuclear metal center (adenine pose only modeled)

B1: adenine deaminase Atu4426 (Agrobacterium fabrum str. C58) (protein)
chain: MTAQIRLAEPADLNDDTLRARAVAAARGDQRFDVLITGGTLVDVVTGELRPADIGIVGALIASVHEPASRRDAAQVIDAGGAYVSPGLIDTHMHIESSMITPAAYAAAVVARGVTTIVWDPHEFGNVHGVDGVRWAAKAIENLPLRAILLAPSCVPSAPGLERGGADFDAAILADLLSWPEIGGIAEIMNMRGVIERDPRMSGIVQAGLAAEKLVCGHARGLKNADLNAFMAAGVSSDHELVSGEDLMAKLRAGLTIELRGSHDHLLPEFVAALNTLGHLPQTVTLCTDDVFPDDLLQGGGLDDVVRRLVRYGLKPEWALRAATLNAAQRLGRSDLGLIAAGRRADIVVFEDLNGFSARHVLASGRAVAEGGRMLVDIPTCDTTVLKGSMKLPLRMANDFLVKSQGAKVRLATIDRPRFTQWGETEADVKDGFVVPPEGATMISVTHRHGMAEPTTKTGFLTGWGRWNGAFATTVSHDSHNLTVFGGNAGDMALAANAVIGTGGGMAVASEGKVTAILPLPLSGLVSDAPLEEVARAFEDLREAVGKVVEWQPPYLVFKACFGATLACNIGPHQTDMGIADVLTGKVMESPVIEVLG
Question: For B1, which Km is on record?
Answer: Its Km is 320 ± 40 µM.
